Test results as given in article doi:10.1101/2021.10.11.463801 (2021).

Target: T1, JIP4[1-103] (human, UniProt O60271-1 1-103)
T1 chain: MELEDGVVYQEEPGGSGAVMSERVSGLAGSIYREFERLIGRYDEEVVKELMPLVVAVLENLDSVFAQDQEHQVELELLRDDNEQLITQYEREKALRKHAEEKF
Assay: ITC

- Kd: 4.5 µM
B1: DLIC1[388-523] (domain or fragment)
chain: PTAAGRPVDASPRVPGGSPRTPNRSVSSNVASVSPIPAGSKKIDPNMKAGATSEGVLANFFNSLLSKKTGSPGGPGVSGGSPAGGAGGGSSGLPPSTKKSGQKPVLDVHAELDRITRKPVTVSPTTPTSPTEGEAS
